Paper PMC10002728

B1: human complement C1r, zymogen form (enzyme)
chain: SIPIPQKLFGEVTSPLFPKPYPNNFETTTVITVPTGYRVKLVFQQFDLEPSEGCFYDYVKISADKKSLGRFCGQLGSPLGNPPGKKEFMSQGNKMLLTFHTDFSNEENGTIMFYKGFLAYYQAVDLDECASRSKSGEEDPQPQCQHLCHNYVGGYFCSCRPGYELQEDTHSCQAECSSELYTEASGYISSLEYPRSYPPDLRCNYSIRVERGLTLHLKFLEPFDIDDHQQVHCPYDQLQIYANGKNIGEFCGKQRPPDLDTSSNAVDLLFFTDESGDSRGWKLRYTTEIIKCPQPKTLDEFTIIQNLQPQYQFRDYFIATCKQGYQLIEGNQVLHSFTAVCQDDGTWHRAMPRCKIKDCGQPRNLPNGDFRYTTTMGVNTYKARIQYYCHEPYYKMQTRAGSRESEQGVYTCTAQGIWKNEQKGEKIPRCLPVCGKPVNPVEQRQRIIGGQKAKMGNFPWQVFTNIHGRGGGALLGDRWILTAAHTLYPKEHEAQSNASLDVFLGHTNVEELMKLGNHPIRRVSVHPDYRQDESYNFEGDIALLELENSVTLGPNLLPICLPDNDTFYDLGLMGYVSGFGVMEEKIAHDLRFVRLPVANPQACENWLRGKNRMDVFSQNMFCAGHPSLKQDACQGDSGGVFAVRDPNTDRWVATGIVSWGIGCSRGYGFYTKVLNYVDWIKKEMEEED
B2: human complement C1r, activated form (enzyme)
chain: B1 chain

Experiments:
Experiment in all cases: SPR
[1] = molecular target: FbpC-C R248A (Borrelia hermsii strain HS1)
[2] = molecular target: B. hermsii strain HS1 FbpC C-terminal complement inhibitory domain, residues 212-374 (Borrelia hermsii strain HS1)
[3] = molecular target: FbpC-C H252A (Borrelia hermsii strain HS1)

| Binder | Kd [1] | koff [1] | kon [1] | Kd [2] | koff [2] | kon [2] | Kd [3] | koff [3] | kon [3] |
| --- | --- | --- | --- | --- | --- | --- | --- | --- | --- |
| B1 | 13 nM | 0.00063 s⁻¹ | 69000 M⁻¹ s⁻¹ | 1.2 nM | 5.4e-05 s⁻¹ | 44000 M⁻¹ s⁻¹ | – | – | – |
| B2 | 0.19 nM | 9.4e-06 s⁻¹ | 45000 M⁻¹ s⁻¹ | 0.3 nM | 1.4e-05 s⁻¹ | 48000 M⁻¹ s⁻¹ | 2.4 nM | 0.00012 s⁻¹ | 51000 M⁻¹ s⁻¹ |
